Numbered stars: 1 amine (or outer) side, 2 acyl side, 3 side chain; on linkers, the order of the positions; unused ones are H or OH. Square brackets hold non-standard residues; d marks the D form. Side chains are listed from the residue outwards. Ends that are not written are not given here. * marks the point of attachment. C20 diacid = O=C(O)CCCCCCCCCCCCCCCCCCC(=O)*; C18 diacid = O=C(O)CCCCCCCCCCCCCCCCC(=O)*; αMePhe(2-F) = C[C@](N)(Cc1ccccc1F)C(=O)O; γGlu = O=C(O)[C@H](CCC(=O)[*:2])N[*:1]; Desaminohistidyl = O=C(CCc1c[nH]cn1)*; Desaminotyrosyl = O=C(CCc1ccc(O)cc1)*; αMeF = C[C@](N)(Cc1ccccc1)C(=O)O; αMeP = C[C@@]1(C(=O)O)CCCN1; AEEA = NCCOCCOCC(=O)O; Aib = CC(C)(N)C(=O)O
T1: human gastric inhibitory peptide receptor (GIPR) (human, UniProt P48546 22-466)
T1 sequence (looked up): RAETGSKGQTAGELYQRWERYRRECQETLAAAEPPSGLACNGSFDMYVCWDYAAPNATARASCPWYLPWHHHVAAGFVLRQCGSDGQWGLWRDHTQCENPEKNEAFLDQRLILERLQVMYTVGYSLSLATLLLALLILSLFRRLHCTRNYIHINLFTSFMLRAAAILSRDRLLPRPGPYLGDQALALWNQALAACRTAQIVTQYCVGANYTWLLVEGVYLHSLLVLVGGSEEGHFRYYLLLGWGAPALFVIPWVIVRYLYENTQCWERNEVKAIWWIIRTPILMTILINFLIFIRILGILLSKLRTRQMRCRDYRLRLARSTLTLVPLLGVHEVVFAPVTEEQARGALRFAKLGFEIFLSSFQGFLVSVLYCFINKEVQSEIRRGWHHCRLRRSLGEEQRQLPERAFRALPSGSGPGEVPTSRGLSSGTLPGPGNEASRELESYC


Legend:
[1] = molecular target: T1, human gastric inhibitory peptide …; assay: cell-based or functional assay
[2] = molecular target: human GLP-1 receptor (GLP-1R) (human, UniProt P43220 24-463); assay: cell-based or functional assay

Binder	hGIPR cAMP EC50 ratio [1]	hGIPR cAMP Rel EC50 [1]	hGLP1R cAMP EC50 ratio [2]	hGLP1R cAMP Rel EC50 [2]
YXEGTXTSDYSIXLDEKAQXEFIXYLIEGGPSSGAPPPS (Y-Aib-EGT-αMeF(2F)-TSDYSI-Aib-LDEK((2-[2-(2-Amino-ethoxy)-ethoxy]-acetyl)2-(γ-Glu)-CO-(CH2)18-CO2H)AQ-Aib-EFI-(D-Glu)-YLIEGGPSSGAPPPS-NH2) [Example 224]	3.52	0.0545 nM	1.06	0.0349 nM
YXEGTXTSDXSILLDXKAQXEFIXYLIEGGPSSGAPPPS (Y-Aib-EGT-αMeF(2F)-TSD-4Pal-SILLD-Dab-K((2-[2-(2-Amino-ethoxy)-ethoxy]-acetyl)2-(γ-Glu)-CO-(CH2)16-CO2H)AQ-Aib-EFI-(D-Glu)-YLIEGGPSSGAPPPS-NH2) [Example 234]	3.83	0.0372 nM	0.317	0.0926 nM
Y[αMeP]EGTFTSDYSILLDRK([AEEA-AEEA-γGlu-C20 diacid])AQHAFIEYLIEGGPSSGAPPPS-NH2 (N-terminus assumed; SMILES CC[C@H](C)[C@H](NC(=O)[C@H](CC(C)C)NC(=O)[C@H](Cc1ccc(O)cc1)NC(=O)[C@H](CCC(=O)O)NC(=O)[C@@H](NC(=O)[C@H](Cc1ccccc1)NC(=O)[C@H](C)NC(=O)[C@H](Cc1c[nH]cn1)NC(=O)[C@H](CCC(N)=O)NC(=O)[C@H](C)NC(=O)[C@H](CCCCNC(=O)COCCOCCNC(=O)COCCOCCNC(=O)CC[C@H](NC(=O)CCCCCCCCCCCCCCCCCCC(=O)O)C(=O)O)NC(=O)[C@H](CCCNC(=N)N)NC(=O)[C@H](CC(=O)O)NC(=O)[C@H](CC(C)C)NC(=O)[C@H](CC(C)C)NC(=O)[C@@H](NC(=O)[C@H](CO)NC(=O)[C@H](Cc1ccc(O)cc1)NC(=O)[C@H](CC(=O)O)NC(=O)[C@H](CO)NC(=O)[C@@H](NC(=O)[C@H](Cc1ccccc1)NC(=O)[C@@H](NC(=O)CNC(=O)[C@H](CCC(=O)O)NC(=O)[C@]1(C)CCCN1C(=O)[C@@H](N)Cc1ccc(O)cc1)[C@@H](C)O)[C@@H](C)O)[C@@H](C)CC)[C@@H](C)CC)C(=O)N[C@@H](CCC(=O)O)C(=O)NCC(=O)NCC(=O)N1CCC[C@H]1C(=O)N[C@@H](CO)C(=O)N[C@@H](CO)C(=O)NCC(=O)N[C@@H](C)C(=O)N1CCC[C@H]1C(=O)N1CCC[C@H]1C(=O)N1CCC[C@H]1C(=O)N[C@@H](CO)C(N)=O) [Example 196]	0.653	0.277 nM	0.332	0.175 nM
[Desaminotyrosyl][Aib]EGTFTSDYSILLDEK([AEEA-AEEA-γGlu-C20 diacid])AQQAFIEYLIEGGPSSGAPPPS-NH2 [Example 199]	< 0.00602	> 30 nM	1.11	0.0422 nM
Y[Aib]EGT[αMeF]TSDYSIXLDKK([AEEA-AEEA-γGlu-C20 diacid])AQ[Aib]EFI[dE]YLIEGGPSSG-NH2 (not fully specified (residue 13); printed as Y-Aib-EGT-αMeF-TSDYSI-αMeF-LDKK((2-[2-(2-Amino-ethoxy)-ethoxy]-acetyl)2-(γ-Glu)-CO-(CH2)18-CO2H)AQ-Aib-EFI-(D-Glu)-YLIEGGPSSG-NH2) [Example 228]	3.86	0.0503 nM	1.1	0.0282 nM
Y[Aib]EGT[αMePhe(2-F)]TSDYSIXLDEK([AEEA-AEEA-γGlu-C18 diacid])AQ[Aib]EFI[dE]YLIEGGPSSG-NH2 (not fully specified (residue 13); printed as Y-Aib-EGT-αMeF(2F)-TSDYSI-αMeF-LDEK((2-[2-(2-Amino-ethoxy)-ethoxy]-acetyl)2-(γ-Glu)-CO-(CH2)16-CO2H)AQ-Aib-EFI-(D-Glu)-YLIEGGPSSG-NH2) [Example 219]	5.86	0.0341 nM	1.03	0.0403 nM
Y[Aib]EGT[αMePhe(2-F)]TSDYSIXLDEK([AEEA-AEEA-γGlu-C18 diacid])AQ[Aib]EFI[dE]YLIEGG-NH2 (not fully specified (residue 13); printed as Y-Aib-EGT-αMeF(2F)-TSDYSI-αMeF-LDEK((2-[2-(2-Amino-ethoxy)-ethoxy]-acetyl)2-(γ-Glu)-CO-(CH2)16-CO2H)AQ-Aib-EFI-(D-Glu)-YLIEGG-NH2) [Example 220]	6.3	0.0315 nM	1.36	0.0312 nM
[Desaminotyrosyl]AEGTFTSDYSILLDEK([AEEA-AEEA-γGlu-C20 diacid])AQQAFIEYLIEGGPSSGAPPPS-NH2 [Example 200]	0.0146	12.3 nM	0.573	0.0818 nM
Y[αMeP]EGTFTSDYSILLDEK([AEEA-AEEA-γGlu-C18 diacid])AQQAFIEYLIEGGPSSG-NH2 (N-terminus assumed; SMILES CC[C@H](C)[C@H](NC(=O)[C@H](CC(C)C)NC(=O)[C@H](Cc1ccc(O)cc1)NC(=O)[C@H](CCC(=O)O)NC(=O)[C@@H](NC(=O)[C@H](Cc1ccccc1)NC(=O)[C@H](C)NC(=O)[C@H](CCC(N)=O)NC(=O)[C@H](CCC(N)=O)NC(=O)[C@H](C)NC(=O)[C@H](CCCCNC(=O)COCCOCCNC(=O)COCCOCCNC(=O)CC[C@H](NC(=O)CCCCCCCCCCCCCCCCC(=O)O)C(=O)O)NC(=O)[C@H](CCC(=O)O)NC(=O)[C@H](CC(=O)O)NC(=O)[C@H](CC(C)C)NC(=O)[C@H](CC(C)C)NC(=O)[C@@H](NC(=O)[C@H](CO)NC(=O)[C@H](Cc1ccc(O)cc1)NC(=O)[C@H](CC(=O)O)NC(=O)[C@H](CO)NC(=O)[C@@H](NC(=O)[C@H](Cc1ccccc1)NC(=O)[C@@H](NC(=O)CNC(=O)[C@H](CCC(=O)O)NC(=O)[C@]1(C)CCCN1C(=O)[C@@H](N)Cc1ccc(O)cc1)[C@@H](C)O)[C@@H](C)O)[C@@H](C)CC)[C@@H](C)CC)C(=O)N[C@@H](CCC(=O)O)C(=O)NCC(=O)NCC(=O)N1CCC[C@H]1C(=O)N[C@@H](CO)C(=O)N[C@@H](CO)C(=O)NCC(N)=O) [Example 197]	0.855	0.211 nM	0.189	0.248 nM
[dY][αMeP]EGTFTSDYSILLDEK([AEEA-AEEA-γGlu-C18 diacid])AQQAFIEYLIEGGPSSG-NH2 (N-terminus assumed; SMILES CC[C@H](C)[C@H](NC(=O)[C@H](CC(C)C)NC(=O)[C@H](Cc1ccc(O)cc1)NC(=O)[C@H](CCC(=O)O)NC(=O)[C@@H](NC(=O)[C@H](Cc1ccccc1)NC(=O)[C@H](C)NC(=O)[C@H](CCC(N)=O)NC(=O)[C@H](CCC(N)=O)NC(=O)[C@H](C)NC(=O)[C@H](CCCCNC(=O)COCCOCCNC(=O)COCCOCCNC(=O)CC[C@H](NC(=O)CCCCCCCCCCCCCCCCC(=O)O)C(=O)O)NC(=O)[C@H](CCC(=O)O)NC(=O)[C@H](CC(=O)O)NC(=O)[C@H](CC(C)C)NC(=O)[C@H](CC(C)C)NC(=O)[C@@H](NC(=O)[C@H](CO)NC(=O)[C@H](Cc1ccc(O)cc1)NC(=O)[C@H](CC(=O)O)NC(=O)[C@H](CO)NC(=O)[C@@H](NC(=O)[C@H](Cc1ccccc1)NC(=O)[C@@H](NC(=O)CNC(=O)[C@H](CCC(=O)O)NC(=O)[C@]1(C)CCCN1C(=O)[C@H](N)Cc1ccc(O)cc1)[C@@H](C)O)[C@@H](C)O)[C@@H](C)CC)[C@@H](C)CC)C(=O)N[C@@H](CCC(=O)O)C(=O)NCC(=O)NCC(=O)N1CCC[C@H]1C(=O)N[C@@H](CO)C(=O)N[C@@H](CO)C(=O)NCC(N)=O) [Example 198]	< 0.00602	> 30 nM	0.337	0.139 nM
[Desaminohistidyl][αMeP]EGTFTSDYSILLDEK([AEEA-AEEA-γGlu-C20 diacid])AQQAFIEYLIEGGPSSGAPPPS-NH2 [Example 201]	< 0.00602	> 30 nM	1.22	0.0385 nM
Y[αMeP]EGTFTSDYSILLDRK([AEEA-AEEA-γGlu-C20 diacid])AQQAFIEYLIEGGPSSGAPPPS-NH2 (N-terminus assumed; SMILES CC[C@H](C)[C@H](NC(=O)[C@H](CC(C)C)NC(=O)[C@H](Cc1ccc(O)cc1)NC(=O)[C@H](CCC(=O)O)NC(=O)[C@@H](NC(=O)[C@H](Cc1ccccc1)NC(=O)[C@H](C)NC(=O)[C@H](CCC(N)=O)NC(=O)[C@H](CCC(N)=O)NC(=O)[C@H](C)NC(=O)[C@H](CCCCNC(=O)COCCOCCNC(=O)COCCOCCNC(=O)CC[C@H](NC(=O)CCCCCCCCCCCCCCCCCCC(=O)O)C(=O)O)NC(=O)[C@H](CCCNC(=N)N)NC(=O)[C@H](CC(=O)O)NC(=O)[C@H](CC(C)C)NC(=O)[C@H](CC(C)C)NC(=O)[C@@H](NC(=O)[C@H](CO)NC(=O)[C@H](Cc1ccc(O)cc1)NC(=O)[C@H](CC(=O)O)NC(=O)[C@H](CO)NC(=O)[C@@H](NC(=O)[C@H](Cc1ccccc1)NC(=O)[C@@H](NC(=O)CNC(=O)[C@H](CCC(=O)O)NC(=O)[C@]1(C)CCCN1C(=O)[C@@H](N)Cc1ccc(O)cc1)[C@@H](C)O)[C@@H](C)O)[C@@H](C)CC)[C@@H](C)CC)C(=O)N[C@@H](CCC(=O)O)C(=O)NCC(=O)NCC(=O)N1CCC[C@H]1C(=O)N[C@@H](CO)C(=O)N[C@@H](CO)C(=O)NCC(=O)N[C@@H](C)C(=O)N1CCC[C@H]1C(=O)N1CCC[C@H]1C(=O)N1CCC[C@H]1C(=O)N[C@@H](CO)C(N)=O) [Example 195]	0.936	0.193 nM	0.602	0.0966 nM
